Source: article PMC10397247
Read-outs that look alike come from different tables or passages of the source. Values belong to the binder of their own block, whether it stands above or below them.

Columns and labels:
Assay in all cases: two-hybrid library CCmax;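 note: natural log of median RNA to DNA barcode read ratio; higher means stronger binding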
4H3354-AA = molecular target: T1, 4H3354-AA
T1 chain: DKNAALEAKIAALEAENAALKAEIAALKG

4H3427-AA = molecular target: T2, 4H3427-AA; settings: mean of both orientations
T2 chain: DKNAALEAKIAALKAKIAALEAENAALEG

4H3438-AA = molecular target: T3, 4H3438-AA
T3 chain: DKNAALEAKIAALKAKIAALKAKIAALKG

4H3782-AA = molecular target: T4, 4H3782-AA; settings: mean of both orientations
T4 chain: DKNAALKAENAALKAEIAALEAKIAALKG

4H3855-AA = molecular target: T5, 4H3855-AA; settings: mean of both orientations
T5 chain: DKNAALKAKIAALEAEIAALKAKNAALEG

4H4001-AA = molecular target: T6, 4H4001-AA; settings: mean of both orientations
T6 chain: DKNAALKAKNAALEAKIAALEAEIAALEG

4H568-AA = molecular target: T7, 4H568-AA; settings: mean of both orientations
T7 chain: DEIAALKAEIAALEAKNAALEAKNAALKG

4H687-AA = molecular target: T8, 4H687-AA; settings: mean of both orientations
T8 chain: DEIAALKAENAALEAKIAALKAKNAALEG

4H717-AA = molecular target: T9, 4H717-AA; settings: mean of both orientations
T9 chain: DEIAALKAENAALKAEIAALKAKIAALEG

4H797-AA = molecular target: T10, 4H797-AA; settings: mean of both orientations
T10 chain: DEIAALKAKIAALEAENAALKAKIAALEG

4H883-AA = molecular target: T11, 4H883-AA; settings: mean of both orientations
T11 chain: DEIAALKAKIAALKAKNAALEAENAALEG

4H918-AA = molecular target: T12, 4H918-AA; settings: mean of both orientations
T12 chain: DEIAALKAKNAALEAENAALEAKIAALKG

4H953-AA = molecular target: T13, 4H953-AA; settings: mean of both orientations
T13 chain: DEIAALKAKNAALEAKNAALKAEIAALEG

4H967-AA = molecular target: T14, 4H967-AA; settings: mean of both orientations
T14 chain: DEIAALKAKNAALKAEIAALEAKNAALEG

4H3112-AA = molecular target: T15, 4H3112-AA
T15 chain: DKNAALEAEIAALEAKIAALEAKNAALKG

4H317-AA = molecular target: T16, 4H317-AA; settings: mean of both orientations
T16 chain: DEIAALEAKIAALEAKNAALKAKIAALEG

4H3343-AA = molecular target: T17, 4H3343-AA; settings: mean of both orientations
T17 chain: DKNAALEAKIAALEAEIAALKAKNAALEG

4H335-AA = molecular target: T18, 4H335-AA; settings: mean of both orientations
T18 chain: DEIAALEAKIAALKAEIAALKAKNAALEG

4H342-AA = molecular target: T19, 4H342-AA; settings: mean of both orientations
T19 chain: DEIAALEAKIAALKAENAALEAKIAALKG

4H3606-AA = molecular target: T20, 4H3606-AA; settings: mean of both orientations
T20 chain: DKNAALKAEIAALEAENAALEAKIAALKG

4H3627-AA = molecular target: T21, 4H3627-AA; settings: mean of both orientations
T21 chain: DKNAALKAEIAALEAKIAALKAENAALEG

4H3655-AA = molecular target: T22, 4H3655-AA; settings: mean of both orientations
T22 chain: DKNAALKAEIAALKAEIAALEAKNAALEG

4H3844-AA = molecular target: T23, 4H3844-AA; settings: mean of both orientations
T23 chain: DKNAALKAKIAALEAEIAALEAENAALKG

4H3921-AA = molecular target: T24, 4H3921-AA; settings: mean of both orientations
T24 chain: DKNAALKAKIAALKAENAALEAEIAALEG

4H429-AA = molecular target: T25, 4H429-AA; settings: mean of both orientations
T25 chain: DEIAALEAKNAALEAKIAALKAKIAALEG

4H454-AA = molecular target: T26, 4H454-AA; settings: mean of both orientations
T26 chain: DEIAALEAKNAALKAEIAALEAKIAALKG

4H48-AA = molecular target: T27, 4H48-AA; settings: mean of both orientations
T27 chain: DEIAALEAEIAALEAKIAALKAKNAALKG

4H566-AA = molecular target: T28, 4H566-AA; settings: mean of both orientations
T28 chain: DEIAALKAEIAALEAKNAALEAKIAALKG

4H605-AA = molecular target: T29, 4H605-AA; settings: mean of both orientations
T29 chain: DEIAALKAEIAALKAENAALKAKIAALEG

4H678-AA = molecular target: T30, 4H678-AA; settings: mean of both orientations
T30 chain: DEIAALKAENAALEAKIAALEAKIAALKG

4H780-AA = molecular target: T31, 4H780-AA; settings: mean of both orientations
T31 chain: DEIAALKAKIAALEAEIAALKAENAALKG

4H794-AA = molecular target: T32, 4H794-AA; settings: mean of both orientations
T32 chain: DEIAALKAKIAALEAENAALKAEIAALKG

4H881-AA = molecular target: T33, 4H881-AA; settings: mean of both orientations
T33 chain: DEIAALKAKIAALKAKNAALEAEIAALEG

4H906-AA = molecular target: T34, 4H906-AA; settings: mean of both orientations
T34 chain: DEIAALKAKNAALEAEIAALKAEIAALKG

4H993-AA = molecular target: T35, 4H993-AA; settings: mean of both orientations
T35 chain: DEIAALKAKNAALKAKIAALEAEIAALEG

interaction score (4H3354-AA): 2.03
interaction score (4H3427-AA): -1.79
interaction score (4H3438-AA): -0.709
interaction score (4H3782-AA): -1.79
interaction score (4H3855-AA): -1.85
interaction score (4H4001-AA): -1.64
interaction score (4H568-AA): -1.54
interaction score (4H687-AA): -1.69
interaction score (4H717-AA): -1.69
interaction score (4H797-AA): -0.991
interaction score (4H883-AA): -2
interaction score (4H918-AA): -1.56
interaction score (4H953-AA): -1.6
interaction score (4H967-AA): -1.42
Binder: DKNAALEAKIAALEAENAALKAEIAALKG [4H3354-AA]

interaction score (4H3112-AA): -0.157
interaction score (4H317-AA): -1.3
interaction score (4H3343-AA): -1.15
interaction score (4H335-AA): 0.64
interaction score (4H3354-AA; mean of both orientations): -1.66
interaction score (4H342-AA): -0.739
interaction score (4H3427-AA): 2.07
interaction score (4H3606-AA): -0.965
interaction score (4H3627-AA): 0.212
interaction score (4H3655-AA): -0.414
interaction score (4H3782-AA): -0.975
interaction score (4H3844-AA): 0.837
interaction score (4H3855-AA): -0.622
interaction score (4H3921-AA): -1.01
interaction score (4H4001-AA): -1.09
interaction score (4H429-AA): 0.94
interaction score (4H454-AA): -0.722
interaction score (4H48-AA): 0.163
interaction score (4H566-AA): -1.22
interaction score (4H568-AA): -0.907
interaction score (4H605-AA): -1.38
interaction score (4H678-AA): -1.37
interaction score (4H687-AA): -0.855
interaction score (4H717-AA): -1.33
interaction score (4H780-AA): -1.01
interaction score (4H794-AA): -1.51
interaction score (4H797-AA): -1.25
interaction score (4H881-AA): -0.621
interaction score (4H883-AA): 0.194
interaction score (4H906-AA): -1.29
interaction score (4H918-AA): -1.44
interaction score (4H953-AA): -1.62
interaction score (4H967-AA): -1.38
interaction score (4H993-AA): -0.58
Binder: DKNAALEAEIAALEAKIAALEAKNAALKG [4H3112-AA]
